Assay results: publication PMC3245944 (Nucleic Acids Research, 2011)
Like-named read-outs stand apart in the source and are kept apart here.

T1: GST-tagged Mgs1 (S. cerevisiae, UniProt P40151 1-587)
T1 sequence: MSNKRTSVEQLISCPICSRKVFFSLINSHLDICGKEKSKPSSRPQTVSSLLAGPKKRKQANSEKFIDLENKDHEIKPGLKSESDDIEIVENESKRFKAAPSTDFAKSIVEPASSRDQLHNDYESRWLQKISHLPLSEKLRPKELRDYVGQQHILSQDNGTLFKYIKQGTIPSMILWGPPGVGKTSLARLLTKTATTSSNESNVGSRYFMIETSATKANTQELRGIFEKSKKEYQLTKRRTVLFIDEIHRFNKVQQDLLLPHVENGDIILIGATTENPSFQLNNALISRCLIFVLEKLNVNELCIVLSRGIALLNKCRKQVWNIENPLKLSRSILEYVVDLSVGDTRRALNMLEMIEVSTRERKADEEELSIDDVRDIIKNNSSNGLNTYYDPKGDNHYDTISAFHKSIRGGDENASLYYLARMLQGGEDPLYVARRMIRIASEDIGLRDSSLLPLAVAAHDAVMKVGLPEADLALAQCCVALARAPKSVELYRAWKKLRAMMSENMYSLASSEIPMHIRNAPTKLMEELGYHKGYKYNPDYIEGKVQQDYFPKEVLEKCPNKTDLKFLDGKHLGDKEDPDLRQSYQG

T2: GST-tagged Mgs1* (D31A) (S. cerevisiae, UniProt P40151 1-587, D31A)
T2 sequence: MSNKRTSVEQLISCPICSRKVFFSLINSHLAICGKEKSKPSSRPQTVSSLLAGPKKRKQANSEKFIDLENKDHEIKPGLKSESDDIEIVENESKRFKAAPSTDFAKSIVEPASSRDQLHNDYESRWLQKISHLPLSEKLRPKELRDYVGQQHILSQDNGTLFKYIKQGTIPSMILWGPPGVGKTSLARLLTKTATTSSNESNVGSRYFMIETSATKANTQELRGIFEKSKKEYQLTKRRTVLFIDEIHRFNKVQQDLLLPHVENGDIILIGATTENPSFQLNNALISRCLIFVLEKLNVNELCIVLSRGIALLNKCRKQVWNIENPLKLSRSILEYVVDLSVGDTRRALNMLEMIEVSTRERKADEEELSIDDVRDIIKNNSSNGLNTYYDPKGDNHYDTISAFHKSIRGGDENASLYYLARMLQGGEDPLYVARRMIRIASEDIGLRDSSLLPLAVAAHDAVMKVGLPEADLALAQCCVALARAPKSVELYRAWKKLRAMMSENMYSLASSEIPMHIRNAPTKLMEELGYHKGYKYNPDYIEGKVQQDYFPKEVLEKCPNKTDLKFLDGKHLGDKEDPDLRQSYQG


How the values were obtained:
Experiment in all cases: pull-down
GST-tagged Mgs1 [1] = molecular target: T1, GST-tagged Mgs1
GST-tagged Mgs1* (D31A) [2] = molecular target: T2, GST-tagged Mgs1* (D31A)
GST-tagged Mgs1 [3] = molecular target: T1, GST-tagged Mgs1; remark: listed apart in the source
GST-tagged Mgs1* (D31A) [4] = molecular target: T2, GST-tagged Mgs1* (D31A); remark: listed apart in the source

| binding result (GST-tagged Mgs1 [1]) | binding result (GST-tagged Mgs1* (D31A) [2]) | binding result (GST-tagged Mgs1 [3]) | binding result (GST-tagged Mgs1* (D31A) [4]) | Binder |
| --- | --- | --- | --- | --- |
| binds | binds | – | – | His6-tagged PCNA (natural protein) MLEAKFEEASLFKRIIDGFKDCVQLVNFQCKEDGIIAQAVDDSRVLLVSLEIGVEAFQEYRCDHPVTLGMDLTSLSKILRCGNNTDTLTLIADNTPDSIILLFEDTKKDRIAEYSLKLMDIDADFLKIEELQYDSTLSLPSSEFSKIVRDLSQLSDSINIMITKETIKFVADGDIGSGSVIIKPFVDMEHPETSIKLEMDQPVDLTFGAKYLLDIIKGSSLSDRVGIRLSSEAPALFQFDLKSGFLQFFLAPKFNDEE |
| – | – | binds | binds | untagged PCNA (unmodified) (natural protein) MLEAKFEEASLFKRIIDGFKDCVQLVNFQCKEDGIIAQAVDDSRVLLVSLEIGVEAFQEYRCDHPVTLGMDLTSLSKILRCGNNTDTLTLIADNTPDSIILLFEDTKKDRIAEYSLKLMDIDADFLKIEELQYDSTLSLPSSEFSKIVRDLSQLSDSINIMITKETIKFVADGDIGSGSVIIKPFVDMEHPETSIKLEMDQPVDLTFGAKYLLDIIKGSSLSDRVGIRLSSEAPALFQFDLKSGFLQFFLAPKFNDEE |
